In patent US12723255B2, “Herbicide tolerance genes and methods of use thereof” (priority 2014, dated 2026):

What was measured:
[1] = enzyme activity assay at 23° C. with purified enzyme; type: biochemical; conditions: for maximum activity as a percentage of the wild-type enzyme's activity, Haloxyfop: purified enzyme
Description: The enzyme activity of MON-HT protein variants with haloxyfop, fenoxaprop, fluazifop, and dichlorprop as substrates was determined using the enzyme activity assay conducted at 23° C. with purified enzyme. The activity was recorded as the maximum activity as a percentage of the wild-type enzyme's activity, which was set at 100%.

[2] = type: physicochemical; conditions: buffer; for T1/2, temperature where 50% of the protein was unfolded, Buffer: pH 7.5
Outline: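 Thermal shift assay: purified enzyme in 30 mM Tris pH7.5, 150 mM NaCl, with or without 50 uM Fe2+ and 1.0 mM aKG. Unfolding followed by SYPRO orange fluorescence from 10° C. to 95° C. in 0.5° C. steps; melting temperature (T1/2) taken from the curve.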

transgenic maize plants = test: trait efficacy field trials with homozygous inbred plants, CTP evaluation; type: in vivo; conditions: crop injury percentage
Excerpt: To evaluate different chloroplast targeting peptides (CTP), plant transformation vectors were constructed, each comprising a recombinant DNA molecule optimized for monocot expression and encoding MON-HTI (SEQ ID NO: 16), MON-HT2 (SEQ ID NO:20), and MON-HT8 (SEQ ID NO:39), MON-HT9 (SEQ ID NO:42), or MON-HT10 (SEQ ID NO:45). The vectors were created using the same combination of promoter, leader, intron, and 3′-UTR, but with one of three separate CTPs (A, B, or C) or without a CTP operably linked to the protein-coding sequence. The DNA constructs were used to transform immature maize (LH244) embryos using Agrobacterium tumifaciens and standard methods known in the art. Regenerated RO transgenic plantlets were grown in the green house. The R0 plants were selfed to generate R1 homozygous seed. The R0 plants were also used as the male to cross with inbred plants containing maize event MON89034 to generate segregating F1 hybrid seed for trait efficacy field trials.
Separate trait efficacy field trials for quizalofop-P and 2,4-D were conducted at two locations each with the homozygous inbred transgenic plants (R2 or R4 generation). In these field trials, one of two herbicide treatments was used: (1) quizalofop-P (Assure II) at 0.16 lb ai/acre (2×) plus 0.25% v/v non-ionic surfactant (NIS) applied at V4 growth stage followed by the same at V8 growth stage; or (2) 2,4-D amine at 2 lb ae/acre (2×) plus 0.25% v/v non-ionic surfactant (NIS) applied to V4 followed by V8. Injury ratings (crop injury percentage at V4 (CIPV4) or V8 (CIPV8)) were taken 10 to 14 days after the V4 and V8 applications. Error was calculated using LSD (0.05).

F1 hybrid maize plants = test: efficacy field trial for 2,4-D tolerance; type: in vivo; conditions: scale 0 to 100, with CTP unless label says no CTP
Description: Separate trait efficacy field trials for quizalofop-P and 2,4-D were conducted at two locations cach with F1 hybrid transgenic plants produced by crossing an inbred plant containing maize event MON89034 with an R1 plant containing MON-HT55 (with a CTP), MON-HTI (with or without a CTP), MON-HT2 (with or without a CTP), MON-HT3 (with a CTP), MON-HT4 (with a CTP), MON-HT5 (with a CTP), MON-HT6 (with a CTP), or MON-HT7 (with a CTP). Transgenic F1 hybrid plants containing maize events NK603×MON89034 were used for comparison as a control.
In the efficacy field trial for 2,4-D tolerance, one of four herbicide treatments was used: (1) 2,4-D amine at 2 lb ac/acre (2×) plus 0.25% v/v non-ionic surfactant (NIS) applied to VE to V2 followed by V4 followed by V8; (2) 2,4-D amine at 4 lb ac/acre (4×) plus 0.25% v/v NIS applied to VE to V2 followed by V4 followed by V8; (3) 2,4-D amine at 8 lb ac/acre (8×) plus 0.25% v/v NIS applied to VE to V2 followed by V4 followed by V8 maize; or (4) 2,4-D amine at 16 lb ac/acre (16×) plus 0.25% v/v NIS applied to VE to V2 followed by V4 followed by V8. Plots were visually rated as above. Tables 14 and 15 show the average injury ratings after herbicide application at V4 or V8 growth stage, respectively.

[3] = CTP A, 0.16 lb ai/acre at V4, V8, LSD (0.05) = 1.45
[4] = CTP A, 0.16 lb ai/acre at V4, V8, LSD (0.05) = 2.2
[5] = CTP A, 2 lb ae/acre at V4, V8, LSD (0.05) = 0.95
[6] = CTP A, 2 lb ae/acre at V4, V8, LSD (0.05) = 1.6
[7] = CTP B, 0.16 lb ai/acre at V4, V8
[8] = CTP C, 0.16 lb ai/acre at V4, V8

Molecule | maximum activity as a percentage of the wild-type enzyme's activity, Haloxyfop ([1]; wild-type set at 100%) [%] | maximum activity as a percentage of the wild-type enzyme's activity, Dichlorprop ([1]; wild-type set at 100%) [%] | maximum activity as a percentage of the wild-type enzyme's activity, Fluazifop ([1]; wild-type set at 100%) [%] | T1/2, temperature where 50% of the protein was unfolded, Buffer plus Fe2+ and aKG [2] [°C] | T1/2, temperature where 50% of the protein was unfolded, Buffer [2] [°C] | 2X Quizalofop-P CIPV4 (transgenic maize plants; [3]) | 2X Quizalofop-P CIPV8 (transgenic maize plants; [4]) | 2X 2,4-D CIPV4 (transgenic maize plants; [5]) | 2X 2,4-D CIPV8 (transgenic maize plants; [6]) | other results
MON-HT9: engineered oxygenase protein, amino acid sequence SEQ ID NO:40 (protein) MHAALTPLTNKYRFIDVQPLTGVLGAEITGVDLREPLDDSTWNEILDAFHTYQVIYFPAQQITNEQHISFSRRFGPVDPVPLLKSIEGYPEVQMIRREANESGRILGDDWHTDSTFLDAPPAAVVMRAIEVPEYGGDTGFLSMYSAWDTLSDTMKATIEGLNVVHSATRVFGSLYQAQNWRFSNTSVKVMDVDAGDRETVHPLVVSHPVTGRRALYCNQVYCQRIEGMTDAESKCLLQFLYEHATKFDFTCRVRWKKDQVLVWDNLCTMHRAVPDYAGKFRYLTRTTVAGDRPAR | 91 | 19 | 41 | 60 | 61 | 0 | 0 | 3.75 | 1.25 | maximum activities for all four substrates compared with the wild-type enzyme ([1]; haloxyfop, fenoxaprop, fluazifop and dichlorprop): lower than, or equal to; maximum activity as a percentage of the wild-type enzyme's activity, Fenoxaprop ([1]; wild-type set at 100%): 67%
MON-HT10: engineered oxygenase protein, amino acid sequence SEQ ID NO:43 (protein) MHAALTPLTNKYRFIDVQPLCGVLGAEITGVDLREPLDDSTWNEILDAFHTYQVIYFPGQAITNEQHIAFSRRFGPVDPVPLLKSIEGYPEVQMIRREANESGRILGDDWHTDSTFLDAPPAAVVMRAIEVPEYGGDTGFLSMYSAWDTLSDTMKATIEGLNVVHSATRVFGSLYQAQNWRFSNTSVKVMDVDAGDRETVHPLVVSHPVTGRRALYCNQVYCQRIEGMTDAESKCLLQFLYEHATKFDFTCRVRWKKDQVLVWDNLCTMHLAVPDYDGKFRYLTRTTVAGDKPSR | – | 29 | 48 | 44 | 44 | 0 | 0 | 0 | 1.25 | –
MON-HT6: engineered oxygenase protein, amino acid sequence SEQ ID NO:31 (protein) MHAALSPLSQKYRFIDVQPLTGVLGAEITGVTLREPLDDNTWNEILDAFHTYQVIYFPGQAITNEQHIAFSRRFGPVDPVPLLKSIEGYPEVQMIRREANESGRVIGDDWHTDSTFLDAPPAAVVMYAREVPPYGGDTGFLSMYSAWDTLSDTMKATIEGLNVVHSATRVFGSLYQAQNRRFSNTSVKVMDVDAGDRETVHPLVVSHPVTGRRALYCNQVYCQRIEGMTDAESKPLLQFLYEHATRFDFTCRVRWKKDQVLVWDNLCTMHRAVPDYAGKFRYLTRTTVAGDKPSR | 75 | 37 | 47 | 44 | 44 | – | – | – | – | average injury rating, V4 Growth Stage, 2x 2,4-D (F1 hybrid maize plants; 2 lb ae/acre at VE-V2, V4, V8): 0.0; average injury rating, V8 Growth Stage, 2x 2,4-D (F1 hybrid maize plants; 2 lb ae/acre at VE-V2, V4, V8): 6.3; average injury rating, V4 Growth Stage, 4x 2,4-D (F1 hybrid maize plants; 4 lb ae/acre at VE-V2, V4, V8): 2.0; average injury rating, V8 Growth Stage, 4x 2,4-D (F1 hybrid maize plants; 4 lb ae/acre at VE-V2, V4, V8): 4.3; average injury rating, V4 Growth Stage, 8x 2,4-D (F1 hybrid maize plants; 8 lb ae/acre at VE-V2, V4, V8): 5.8; average injury rating, V8 Growth Stage, 8x 2,4-D (F1 hybrid maize plants; 8 lb ae/acre at VE-V2, V4, V8): 11.3; average injury rating, V4 Growth Stage, 16x 2,4-D (F1 hybrid maize plants; 16 lb ae/acre at VE-V2, V4, V8): 8.8; average injury rating, V8 Growth Stage, 16x 2,4-D (F1 hybrid maize plants; 16 lb ae/acre at VE-V2, V4, V8): 12.5
MON-HT8: engineered oxygenase protein, amino acid sequence SEQ ID NO:37 (protein) MHAALTPLTNKYRFIDVQPLTGVLGAEITGVDLREPLDDSTWNEILDAFHTYQVIYFPGQAITNEQHIAFSRRFGPVDPVPILKSIEGYPEVQMIRREANESGRVIGDDWHTDSTFLDAPPAAVVMRAIEVPEYGGDTGFLSMYSAWETLSPTMQATIEGLNVVHSATKVFGSLYQATNWRFSNTSVKVMDVDAGDRETVHPLVVTHPVTGRRALYCNQVYCQKIQGMTDAESKSLLQFLYEHATKFDFTCRVRWKKDQVLVWDNLCTMHRSVPDYGNAFRYLTRTTVAGDKPSR | 99 | – | 50 | 61 | 61 | 0 | 1.25 | 1.75 | 1.25 | 2X Quizalofop-P CIPV4 (transgenic maize plants; [7]): 0.75; 2X Quizalofop-P CIPV8 (transgenic maize plants; [7]): 2.5; 2X 2,4-D CIPV4 (transgenic maize plants; CTP B, 2 lb ae/acre at V4, V8): 0; 2X 2,4-D CIPV8 (transgenic maize plants; CTP B, 2 lb ae/acre at V4, V8): 1.25; 2X Quizalofop-P CIPV4 (transgenic maize plants; [8]): 0; 2X Quizalofop-P CIPV8 (transgenic maize plants; [8]): 1.25; 2X 2,4-D CIPV4 (transgenic maize plants; CTP C, 2 lb ae/acre at V4, V8): 1.25; 2X 2,4-D CIPV8 (transgenic maize plants; CTP C, 2 lb ae/acre at V4, V8): 0
